In PMC8993221, “Agl24 is an ancient archaeal homolog of the eukaryotic N-glycan chitobiose synthesis enzymes” (eLife, 2022):

Substrate: CC(=O)N[C@H]1[C@@H](OP(=O)(O)OP(=O)(O)OC[C@H]2O[C@@H](n3ccc(=O)[nH]c3=O)[C@H](O)[C@@H]2O)O[C@H](CO)[C@@H](O)[C@@H]1O
Assay: purified protein
Type: biochemical, Sulfolobus acidocaldarius
Conditions: 0.5 mM acceptor-2 (phenyl-O-C11H22-PP-GlcNAc), TBS with 5 mM MgCl2, pH 7.5, 60 °C, 10 hr, UDP-GlcNAc 0.5-12 mM

B1: Agl24 (Saci1262) (Sulfolobus acidocaldarius DSM 639) (protein)
chain: MIDNPLLIIASGGGHTGFARAIAEYLPFKPDFVIPENDRFSKDMLLDYARKLYYVKKGKDPGQGNIVLMRNFLKIIIESGKIPKYLATIATGSNHSLIPAMFQKIKGSALYVTESQDRIITRGKTVSVLSKFSRHVFLHWNEQKGLYDNGVVVGPIVEKPKYKSENKGYILVTTGSMGFKKLFDSLLNLRGNYKFVIQTGKVDPTPYIEKKPDWSFFSFDKDIERYIANAELVITHQGKTAMESVVMYGKPTIIVYNKDWKSATTKQDTILYSKILGATFLDDPSTWDSIKVLEDSIQNVRKPNQFEIGTPKLIDIILSELAEFLRE
notes: full length (327 residues), C-terminal TEV site-GFP-His8 fusion (pWaldo, plasmid pHD0499), tags kept; E. coli BL21 membranes, DDM-solubilised, Ni purified
Km: 1.37 ± 0.13 mM
